From patent US20240158510A1 (GOVERNING COUNCIL OF THE UNIVERSITY OF TORONTO, published 2024) come the findings set out here.

Test [1] has as its target T1, recombinant human integrin-αvβ1 (human, UniProt P06756 31-992; P05556 21-728, limits assumed).
T1 construct: also called Recombinant Human Integrins
The test can be described thus: IgG titration on recombinant human integrin αvβ1, one site-total fit; assay format not stated. Details: Bmax: unit not given here.

The target of test [2] is T2, integrin αvβ8 expressed on CHO cells (UniProt P06756 31-1048; P26012 43-769, limits assumed).
T2 construct: whole, on cells
The test can be described thus: flow cytometry titration on AvB8 CHO cells. Here is the method:
(§1) Adherent cells were brought into suspension using PBS supplemented with 10 mM ethylenediaminetetraacetic acid (EDTA). The cells were washed with PBS, resuspended in PBS supplemented with 1% BSA, and incubated for 15 minutes at 4° C. The cells were labelled with 50 μl of Fab-phage culture supernatant, or 500 nM Fab, or IgG for 30 minutes at 4° C., then washed with PBS and resuspended in PBS supplemented with 1% BSA. Next, the cells were labelled with anti-Fab (for Fab-phage), or anti-Flag (for Fabs) or anti-Fc (for IgGs) conjugated Alexa-488 secondary Ab according to manufacturer's instructions. Data were collected using a CytoFLEX-S flow-cytometer using a 488-nm laser with 530/25 nm filter settings. The cells were analyzed in PBS, and all acquired live events were greater than 10,000 cells per sample. Quantitation analysis was carried out using FlowJo v10.2 Software. For Ab cellular titration analysis, the Abs were added to antigen positive cells in duplicate samples from a range of 500 pM to 1 μM. The mean fluorescence signal values were subtracted from the control antigen negative cells signals, and EC50 determined using Graph-pad Prism, where x is the Fab concentration: […]
(In general: A flow cytometer gives signals particle by particle.)

In test [3] the target is T3, integrin αvβ5 expressed on CHO cells (UniProt P06756 31-1048; P18084 24-799, limits assumed).
T3 construct: whole, on cells
The test can be described thus: flow cytometry titration on AvB5 CHO cells. Here is the method: as §1

Test [4] addresses T2, integrin αvβ8 expressed on CHO cells. Nature of the test: flow cytometry titration on integrin-expressing CHO cells. Here is the method: as §1
Test [5] concerns the target T4, integrin αvβ3 expressed on CHO cells (UniProt P06756 31-1048; P05106 27-788, limits assumed).
T4 construct: whole, on cells
Described as above. Here is the method:
as §1

In test [6] the target is T5, integrin αvβ1 expressed on CHO cells (UniProt P06756 31-1048; P05556 21-798, limits assumed).
T5 construct: whole, on cells; also called CHO AvB1; AvB1 CHO cells
The description is as above. Here is the method: as §1

Test [7] concerns the target T3, integrin αvβ5 expressed on CHO cells. The description is as above. Here is the method: as §1
In test [8] the target is T6, integrin αvβ6 expressed on CHO cells (UniProt P06756 31-1048; P18564 22-788, limits assumed).
T6 construct: whole, on cells
Described as above. Here is the method:
as §1

Test [9] concerns the target T4, integrin αvβ3 expressed on CHO cells. Nature of the test: cell-based or functional assay.
In test [10] the target is T5, integrin αvβ1 expressed on CHO cells. Nature of the test: cell-based or functional assay.
The target in test [11] is T7, recombinant mouse integrin-αvβ1 (mouse, UniProt P43406 31-988; P09055 21-728, limits assumed).
T7 construct: also called Recombinant Mouse Integrins
The test can be described thus: IgG titration on recombinant mouse integrin αvβ1, one site-total fit; assay format not stated.

The target of test [12] is T6, integrin αvβ6 expressed on CHO cells. The test can be described thus: flow cytometry titration on AvB6 CHO cells. Here is the method:
as §1

For test [13], the target named is T5, integrin αvβ1 expressed on CHO cells. Nature of the test: cell-based or functional assay. This is another data set of the same source.
The target is the same in test [14]. The test can be described thus: flow cytometry titration on AvB1 CHO cells. Here is the method:
as §1

Test [15] addresses T4, integrin αvβ3 expressed on CHO cells. Nature of the test: flow cytometry titration on AvB3 CHO cells. Here is the method:
as §1

Test [16] has as its target T2, integrin αvβ8 expressed on CHO cells. Nature of the test: cell-based or functional assay.
The target in test [17] is T4, integrin αvβ3 expressed on CHO cells. Nature of the test: cell-based or functional assay. The source holds these as a separate data set.
For test [18], the target named is T5, integrin αvβ1 expressed on CHO cells. Nature of the test: cell-based or functional assay. This is another data set of the same source.
Test [19] has as its target T3, integrin αvβ5 expressed on CHO cells. Nature of the test: cell-based or functional assay.
The target of test [20] is T6, integrin αvβ6 expressed on CHO cells. Nature of the test: cell-based or functional assay.

Read-outs that look alike come from different tables or passages of the source. A value given as a limit tells only on which side of the number the result lay.

T7 sequence (P43406 31-988 limits assumed, chain 1 of 2): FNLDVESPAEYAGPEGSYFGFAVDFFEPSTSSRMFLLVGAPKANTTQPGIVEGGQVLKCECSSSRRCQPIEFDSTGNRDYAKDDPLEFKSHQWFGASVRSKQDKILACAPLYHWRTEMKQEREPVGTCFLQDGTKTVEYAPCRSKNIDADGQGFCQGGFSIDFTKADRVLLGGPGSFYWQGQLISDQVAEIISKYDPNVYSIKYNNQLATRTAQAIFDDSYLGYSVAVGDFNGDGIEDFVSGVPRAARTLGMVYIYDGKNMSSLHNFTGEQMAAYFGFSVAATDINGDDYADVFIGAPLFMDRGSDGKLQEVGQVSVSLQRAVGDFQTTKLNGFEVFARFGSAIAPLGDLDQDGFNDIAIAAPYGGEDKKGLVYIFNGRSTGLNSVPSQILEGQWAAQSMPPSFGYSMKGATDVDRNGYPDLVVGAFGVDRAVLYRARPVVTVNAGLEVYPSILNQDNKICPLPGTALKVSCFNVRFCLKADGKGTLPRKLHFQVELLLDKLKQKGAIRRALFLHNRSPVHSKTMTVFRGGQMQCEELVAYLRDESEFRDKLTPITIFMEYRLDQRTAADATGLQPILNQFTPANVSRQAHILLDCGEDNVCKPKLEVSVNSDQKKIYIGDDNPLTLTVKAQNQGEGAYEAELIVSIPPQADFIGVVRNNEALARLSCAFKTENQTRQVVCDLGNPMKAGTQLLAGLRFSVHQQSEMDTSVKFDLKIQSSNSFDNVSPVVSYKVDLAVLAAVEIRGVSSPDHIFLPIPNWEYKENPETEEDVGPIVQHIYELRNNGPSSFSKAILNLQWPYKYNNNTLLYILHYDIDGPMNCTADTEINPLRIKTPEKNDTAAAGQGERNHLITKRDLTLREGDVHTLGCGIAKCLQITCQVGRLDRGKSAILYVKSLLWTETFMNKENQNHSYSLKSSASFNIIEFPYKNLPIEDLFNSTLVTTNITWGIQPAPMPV
T7 sequence (P09055 21-728 limits assumed, chain 2 of 2): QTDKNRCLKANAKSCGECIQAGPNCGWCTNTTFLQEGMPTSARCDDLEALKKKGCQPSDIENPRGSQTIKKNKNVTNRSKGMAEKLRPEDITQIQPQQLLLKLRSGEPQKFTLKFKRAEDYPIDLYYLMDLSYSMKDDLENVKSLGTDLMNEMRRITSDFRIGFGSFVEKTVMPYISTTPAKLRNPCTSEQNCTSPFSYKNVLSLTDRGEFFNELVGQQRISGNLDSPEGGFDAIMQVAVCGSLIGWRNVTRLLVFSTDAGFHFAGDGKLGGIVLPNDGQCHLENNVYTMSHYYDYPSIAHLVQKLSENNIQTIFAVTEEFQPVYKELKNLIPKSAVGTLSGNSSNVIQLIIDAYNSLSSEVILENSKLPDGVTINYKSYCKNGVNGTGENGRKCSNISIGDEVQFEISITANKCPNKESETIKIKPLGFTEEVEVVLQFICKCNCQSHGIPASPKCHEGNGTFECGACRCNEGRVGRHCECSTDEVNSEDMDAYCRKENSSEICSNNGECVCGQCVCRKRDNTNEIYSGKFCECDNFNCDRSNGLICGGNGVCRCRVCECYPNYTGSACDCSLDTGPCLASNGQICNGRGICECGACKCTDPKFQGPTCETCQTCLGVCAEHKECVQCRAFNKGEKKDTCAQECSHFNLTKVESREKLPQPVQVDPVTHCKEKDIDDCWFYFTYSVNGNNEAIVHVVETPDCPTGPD
T5 sequence (P06756 31-1048 limits assumed, chain 1 of 2): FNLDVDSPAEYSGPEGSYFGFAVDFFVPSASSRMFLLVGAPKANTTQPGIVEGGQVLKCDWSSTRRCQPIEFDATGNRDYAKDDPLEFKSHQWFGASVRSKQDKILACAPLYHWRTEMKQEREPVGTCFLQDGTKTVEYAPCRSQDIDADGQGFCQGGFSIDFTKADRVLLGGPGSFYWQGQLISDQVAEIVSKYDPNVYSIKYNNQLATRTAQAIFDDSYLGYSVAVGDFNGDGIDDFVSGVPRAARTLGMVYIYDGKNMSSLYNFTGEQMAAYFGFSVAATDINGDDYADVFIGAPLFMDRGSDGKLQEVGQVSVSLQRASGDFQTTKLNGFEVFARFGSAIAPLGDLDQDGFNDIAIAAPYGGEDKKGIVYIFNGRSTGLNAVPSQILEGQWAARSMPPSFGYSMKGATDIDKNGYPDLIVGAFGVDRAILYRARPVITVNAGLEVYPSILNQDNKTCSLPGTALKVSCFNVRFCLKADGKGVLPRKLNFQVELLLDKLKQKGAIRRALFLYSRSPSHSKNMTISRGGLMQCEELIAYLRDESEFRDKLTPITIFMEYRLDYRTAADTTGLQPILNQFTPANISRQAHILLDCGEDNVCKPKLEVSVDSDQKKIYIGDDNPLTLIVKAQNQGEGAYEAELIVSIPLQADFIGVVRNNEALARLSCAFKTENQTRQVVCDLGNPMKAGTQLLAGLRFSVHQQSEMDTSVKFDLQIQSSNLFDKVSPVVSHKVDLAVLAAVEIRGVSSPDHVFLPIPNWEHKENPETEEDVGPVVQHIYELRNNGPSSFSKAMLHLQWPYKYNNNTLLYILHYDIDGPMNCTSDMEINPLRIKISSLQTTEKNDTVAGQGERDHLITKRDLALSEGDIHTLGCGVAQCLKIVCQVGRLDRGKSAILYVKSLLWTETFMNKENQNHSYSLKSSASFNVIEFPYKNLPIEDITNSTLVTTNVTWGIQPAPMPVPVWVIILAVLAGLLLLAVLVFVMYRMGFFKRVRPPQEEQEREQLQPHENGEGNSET
T5 sequence (P05556 21-798 limits assumed, chain 2 of 2): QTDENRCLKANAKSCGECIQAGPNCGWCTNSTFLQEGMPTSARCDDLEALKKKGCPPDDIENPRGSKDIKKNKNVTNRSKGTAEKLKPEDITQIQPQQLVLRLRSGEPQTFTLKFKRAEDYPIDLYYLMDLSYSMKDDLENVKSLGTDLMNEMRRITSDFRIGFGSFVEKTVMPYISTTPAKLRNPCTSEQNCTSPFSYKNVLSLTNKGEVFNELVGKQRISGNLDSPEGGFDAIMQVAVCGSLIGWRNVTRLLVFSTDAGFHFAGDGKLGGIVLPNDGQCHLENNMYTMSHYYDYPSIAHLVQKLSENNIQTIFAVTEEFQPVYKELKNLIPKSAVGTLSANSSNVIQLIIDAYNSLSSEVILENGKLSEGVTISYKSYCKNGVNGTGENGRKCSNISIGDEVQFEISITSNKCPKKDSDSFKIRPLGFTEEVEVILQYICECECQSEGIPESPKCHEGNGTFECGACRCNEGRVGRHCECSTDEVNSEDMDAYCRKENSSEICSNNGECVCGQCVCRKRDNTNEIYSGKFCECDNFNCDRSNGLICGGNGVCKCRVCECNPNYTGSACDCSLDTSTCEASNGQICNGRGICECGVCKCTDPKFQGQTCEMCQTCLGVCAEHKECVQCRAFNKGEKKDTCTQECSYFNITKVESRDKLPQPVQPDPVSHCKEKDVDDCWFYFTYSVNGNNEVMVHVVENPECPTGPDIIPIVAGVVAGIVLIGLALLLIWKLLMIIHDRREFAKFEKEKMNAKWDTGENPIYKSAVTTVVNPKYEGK
T3 sequence (P06756 31-1048 limits assumed, chain 1 of 2): as the sequence (P06756 31-1048 limits assumed, chain 1 of 2) above
T3 sequence (P18084 24-799 limits assumed, chain 2 of 2): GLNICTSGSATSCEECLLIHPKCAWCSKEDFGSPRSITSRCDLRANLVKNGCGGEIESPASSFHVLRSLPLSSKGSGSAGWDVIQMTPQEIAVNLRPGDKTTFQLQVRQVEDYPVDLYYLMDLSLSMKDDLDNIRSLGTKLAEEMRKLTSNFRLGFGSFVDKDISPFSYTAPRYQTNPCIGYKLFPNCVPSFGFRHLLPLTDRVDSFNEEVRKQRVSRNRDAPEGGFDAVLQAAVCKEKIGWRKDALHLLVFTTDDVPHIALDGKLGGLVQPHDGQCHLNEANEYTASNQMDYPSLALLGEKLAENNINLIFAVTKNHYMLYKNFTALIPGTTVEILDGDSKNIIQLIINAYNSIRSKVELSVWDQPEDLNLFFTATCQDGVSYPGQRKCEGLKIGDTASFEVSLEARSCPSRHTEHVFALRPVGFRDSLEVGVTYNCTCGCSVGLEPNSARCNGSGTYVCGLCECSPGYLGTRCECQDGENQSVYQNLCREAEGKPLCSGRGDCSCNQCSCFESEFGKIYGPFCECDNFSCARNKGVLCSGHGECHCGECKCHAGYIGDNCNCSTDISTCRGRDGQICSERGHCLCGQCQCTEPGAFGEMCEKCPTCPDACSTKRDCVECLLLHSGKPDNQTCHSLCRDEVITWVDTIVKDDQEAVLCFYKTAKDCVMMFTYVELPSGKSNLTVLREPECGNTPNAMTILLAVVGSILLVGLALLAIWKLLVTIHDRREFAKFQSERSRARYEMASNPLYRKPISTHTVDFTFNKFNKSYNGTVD
T6 sequence (P06756 31-1048 limits assumed, chain 1 of 2): as the sequence (P06756 31-1048 limits assumed, chain 1 of 2) above
T6 sequence (P18564 22-788 limits assumed, chain 2 of 2): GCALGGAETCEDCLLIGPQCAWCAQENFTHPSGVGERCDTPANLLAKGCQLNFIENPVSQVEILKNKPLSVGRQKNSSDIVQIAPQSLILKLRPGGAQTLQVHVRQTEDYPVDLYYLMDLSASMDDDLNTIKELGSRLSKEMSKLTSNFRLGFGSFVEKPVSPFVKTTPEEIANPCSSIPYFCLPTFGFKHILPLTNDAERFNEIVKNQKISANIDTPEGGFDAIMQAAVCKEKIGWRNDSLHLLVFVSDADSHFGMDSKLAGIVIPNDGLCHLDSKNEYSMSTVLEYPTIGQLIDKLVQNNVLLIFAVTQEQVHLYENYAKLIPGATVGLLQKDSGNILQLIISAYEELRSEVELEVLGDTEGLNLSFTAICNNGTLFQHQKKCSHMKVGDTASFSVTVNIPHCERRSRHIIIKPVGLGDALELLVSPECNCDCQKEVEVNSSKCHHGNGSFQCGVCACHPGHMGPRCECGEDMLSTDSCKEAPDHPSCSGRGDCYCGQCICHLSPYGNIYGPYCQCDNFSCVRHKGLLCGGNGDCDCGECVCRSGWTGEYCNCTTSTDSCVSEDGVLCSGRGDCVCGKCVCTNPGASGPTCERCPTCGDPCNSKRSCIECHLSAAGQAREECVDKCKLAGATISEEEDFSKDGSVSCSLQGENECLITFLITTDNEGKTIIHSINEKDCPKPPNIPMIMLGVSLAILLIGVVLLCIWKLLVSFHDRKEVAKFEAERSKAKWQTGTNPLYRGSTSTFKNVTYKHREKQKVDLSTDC

B1: IgG clone 10392, hG1/hk (pSCSTa-hG1 (10392) heavy chain, pSCSTa-hK (10392) light chain) (antibody, V domains shown)
VH: EVQLVESGGGLVQPGGSLRLSCAASGFNIYYSSIHWVRQAPGKGLEWVASISSSSGSTSTYADSVKGRFTISADTSKNTAYLQMNSLRAEDTAVYYCARSYYGGGYPYALDYWGQGTLVTVSS
VL: DIQMTQSPSSLSASVGDRVTITCRASQSVSSAVAWYQQKPGKAPKLLIYSASSLYSGVPSRFSGSRSGTDFTLTISSLQPEDFATYYCQQYFGGLITFGQGTKVEIKR
notes: Full-length human IgG1/kappa made in Expi293 cells
For orientation: Kd means the free concentration of one partner at which half of the binding sites on the other are occupied at equilibrium, for simple one-to-one binding. Broadly, the EC50 is the concentration needed to bring the measured effect to its halfway point. On to B1, for which the Bmax in test [1] and in test [11] was 0.412 throughout. Also, the dissociation constant Kd in [1] and in [11] was 0.421 nM in each case. Moreover, the concentration for a half-maximal effect (EC50) stood at 11.6 nM in test [2]; 1.3 nM in test [3]; 11.4 nM in [4]; 14.8 nM in test [5]; 2.72 nM in test [6]; 3.4 nM in test [7]. Further, the EC50 in test [8] came to 3.26 nM; in [12], 3.7 nM; in test [14] it was 3 nM; in test [15] it was 9.9 nM. Also, the “IC50, inhibition of CHO cell adhesion to LAP-TGFβ” value (“IC50, inhibition” below) was 45 nM in test [9]; below 1 nM in test [10]; 1.3 nM in test [16]; 1.2 nM in [17]; 5 nM in [18]; 0.7 nM in [19]. For the same molecule, the “IC50, inhibition” value in test [20] was determined as 1.4 nM. For the same molecule, the “adhesion of integrin-αvβ1 CHO cells to LAP-TGFβ, normalised confluence, number over the bar, untreated = 100” value in test [13] came out at 61.2%.

B2: 10404 hG1 LALA PG/hk (antibody, V domains shown)
VH: EVQLVESGGGLVQPGGSLRLSCAASGFNLYSSSIHWVRQAPGKGLEWVAYIYPSYGYTSTYADSVKGRFTISADTSKNTAYLQMNSLRAEDTAVYYCARPAPYYSWYPAMDYWGQGTLVTVSS
VL: DIQMTQSPSSLSASVGDRVTITCRASQSVSSAVAWYQQKPGKAPKLLIYSASSLYSGVPSRFSGSRSGTDFTLTISSLQPEDFATYYCQQASGSPFTFGQGTKVEIKR
notes: not shown: human IgG1 constant region with 'LALA PG' changes
With B2, the Bmax in test [1] and in test [11] was 1.09 in each case. The dissociation constant (Kd) in [1] and in test [11] was 0.244 nM in each case.

B3: 10392 hG1 LALA PG/hk (antibody, human IgG1, V domains shown)
VH: EVQLVESGGGLVQPGGSLRLSCAASGFNIYYSSIHWVRQAPGKGLEWVASISSSSGSTSTYADSVKGRFTISADTSKNTAYLQMNSLRAEDTAVYYCARSYYGGGYPYALDYWGQGTLVTVSS
VL: DIQMTQSPSSLSASVGDRVTITCRASQSVSSAVAWYQQKPGKAPKLLIYSASSLYSGVPSRFSGSRSGTDFTLTISSLQPEDFATYYCQQYFGGLITFGQGTKVEIKR
notes: as for B2
Take B3: in test [1], the Bmax was determined as 0.555 and the Kd stood at 0.411 nM. In addition, in [11], the Bmax stood at 0.555 and the equilibrium dissociation constant (Kd) turned out to be 0.411 nM.

B4: 10404 hG4/hk (antibody, V domains shown)
VH: EVQLVESGGGLVQPGGSLRLSCAASGFNLYSSSIHWVRQAPGKGLEWVAYIYPSYGYTSTYADSVKGRFTISADTSKNTAYLQMNSLRAEDTAVYYCARPAPYYSWYPAMDYWGQGTLVTVSS
VL: DIQMTQSPSSLSASVGDRVTITCRASQSVSSAVAWYQQKPGKAPKLLIYSASSLYSGVPSRFSGSRSGTDFTLTISSLQPEDFATYYCQQASGSPFTFGQGTKVEIKR
notes: the IgG4 constant region used is not specified; not shown: human IgG4 constant region ('hG4')
On to B4, for which, in test [1], the Bmax was 0.782 and the Kd came to 0.358 nM. For the same molecule, in [11], the Bmax came out at 0.782 and the Kd came to 0.358 nM.

B5: 10392 hG4/hk (antibody, human IgG4, V domains shown)
VH: EVQLVESGGGLVQPGGSLRLSCAASGFNIYYSSIHWVRQAPGKGLEWVASISSSSGSTSTYADSVKGRFTISADTSKNTAYLQMNSLRAEDTAVYYCARSYYGGGYPYALDYWGQGTLVTVSS
VL: DIQMTQSPSSLSASVGDRVTITCRASQSVSSAVAWYQQKPGKAPKLLIYSASSLYSGVPSRFSGSRSGTDFTLTISSLQPEDFATYYCQQYFGGLITFGQGTKVEIKR
notes: not shown: human IgG4 constant region ('hG4')
In the case of B5, in [1], the Bmax came to 0.85 and the equilibrium dissociation constant (Kd) came out at 0.842 nM. Further, in test [11], the Bmax was 0.85 and the Kd stood at 0.842 nM.

B6: Bi-IgG 11867/10392 (bispecific antibody)
heavy chain 10392, knob: EVQLVESGGGLVQPGGSLRLSCAASGFNIYYSSIHWVRQAPGKGLEWVASISSSSGSTSYADSVKGRFTISADTSKNTAYLQMNSLRAEDTAVYYCARSYYGGGYPYALDYWGQGTLVTVSSASTKGPSVFPLAPSSKSTSGGTAALGCLVKDYFPEPVTVSWNSGALTSGVHTFPAVLQSSGLYSLSSVVTVPSSSLGTQTYICNVNHKPSNTKVDKKVEPKSCDKTHTCPPCPAPELLGGPSVFLFPPKPKDTLMISRTPEVTCVVVDVSHEDPEVKFNWYVDGVEVHNAKTKPREEQYNSTYRVVSVLTVLHQDWLNGKEYKCKVSNKALPAPIEKTISKAKGQPREPMVFDLPPSREEMTKNQVSLWCMVKGFYPSDIAVEWESNGQPENNYKTTPPVLDSDGSFFLYSKLTVDKSRWQQGNVFSCSVMHEALHNHYTQKSLSLSPGK
heavy chain 11867, hole: EVQLVESGGGLVQPGGSLRLSCAASGFDFDSYAIHWVRQAPGKGLEWVAYFYPGHDYSTYADSVKGRFTISADTSKNTAYLQMNSLRAEDTAVYYCARPSPYFSWHQAMDYWGQGTLVTVSSASTKGPSVFPLAPSSKSTSGGTAALGCLVKDYFPEPVTVSWNSGALTSGVHTFPAVLQSSGLYSLSSVVTVPSSSLGTQTYICNVNHKPSNTKVDKKVEPKSCDKTHTCPPCPAPELLGGPSVFLFPPKPKDTLMISRTPEVTCVVVDVSHEDPEVKFNWYVDGVEVHNAKTKPREEQYNSTYRVVSVLTVLHQDWLNGKEYKCKVSNKALPAPIEKTISKAKGQPREPQVYTLPPIRELMTSNQVSLSCAVKGFYPSDIAVEWESNGQPENNYKTTPPVLDSDGSFFLVSKLTVDKSRWQQGNVFSCSVMHEALHNHYTQKSLSLSPGK
light chain 11867: DIQMTQSPSSLSASVGDRVTITCRASQSVSSAVAWYQQKPGKAPKLLIYSASSLYSGVPSRFSGSRSGTDFTLTISSLQPEDFATYYCQQATGSEVTFGQGTKVEIKRTVAAPSVFIFPPSDEQLKSGTASVVCLLNNFYPREAKVQWKVDNALQSGNSQESVTEQDSKDSTYSLSSTLTLSKADYEKHKVYACEVTHQGLSSPVTKSFNRGEC
For the molecule B6, the concentration giving a half-maximal response (EC50) was determined as 6.4 nM in test [2]; 1.2 nM in test [3]; 2.5 nM in [12]; 2.4 nM in [14]; 15.9 nM in [15]. Moreover, the “IC50, inhibition” value in [16] was 2.5 nM; in [17] it was 7.5 nM; in [18], 3.2 nM; in test [19] it was 4.1 nM; in test [20], 6.1 nM.
